# Source: publication doi:10.1101/2021.01.04.425348 (bioRxiv, 2021)
# B1: PDI I289A (enzyme)
# chain: not shown
# Molecular target: the molecule itself
# Test: high-speed atomic force microscopy
protein,measurement,value
B1,stoichiometry N,2
